# Measured values from patent publication US20260201355A1 (GENKORE, published 2026).
# B1: CWCas12f protein (enzyme)
# chain: MGEKSSRRRRNGKSGAWTAAITSCVGGKMAKNTITKTLKLRIVRPYNSAEVEKIVADEKNNREKIALEKNKDKVKEACSKHLKVAAYCTTQVERNACLFCKARKLDDKFYQKLRGQFPDAVFWQEISEIFRQLQKQAAEIYNQSLIELYYEIFIKGKGIANASSVEHYLSDVCYTRAAELFKNAAIASGLRSKIKSNFRLKELKNMKSGLPTTKSDNFPIPLVKQKGGQYTGFEISNHNSDFIIKIPFGRWQVKKEIDKYRPWEKFDFEQVQKSPKPISLLLSTQRRKRNKGWSKDEGTEAEIKKVMNGDYQTSYIEVKRGSKIGEKSAWMLNLSIDVPKIDKGVDPSIIGGIDVGVKSPLVCAINNAFSRYSISDNDLFHFNKKMFARRRILLKKNRHKRAGHGAKNKLKPITILTEKSERFRKKLIERWACEIADFFIKNKVGTVQMENLESMKRKEDSYFNIRLRGFWPYAEMQNKIEFKLKQYGIEIRKVAPNNTSKTCSKCGHLNNYFNFEYRKKNKFPHFKCEKCNFKENADYNAALNISNPKLKSTKEEP
# notes: Recombinant protein purified from E. coli and incubated with engineered sgRNA to form the ribonucleoprotein before size exclusion chromatography; The complex also contains the sgRNA, which is not a protein; also called TnpB; wild-type CWCas12f
# Target: the molecule itself
# Experiment: size exclusion chromatography (Superdex 200) of the CWCas12f-gRNA ribonucleoprotein complex
# Method: Using the method for production of ribonucleoprotein particles in Example 1.7, the CWCas12f protein was incubated with the gRNA to produce a ribonucleoprotein complex. The ribonucleoprotein complex was analyzed by size exclusion chromatography using a Superdex 200 column.
protein,measurement,value
B1,binding result,binds
